Measured values: US20100260668A1 (published 2010)
Several values for one entry are separate records, joined by “and”; a condition that tells them apart may be missing. Equal entries are not always repeated.

Experiments:
[1] = target: CD80/FC (B7-1 ECD/FC chimera) (UniProt P33681 35-242); assay: Direct Bind ELISA, antigen on plate
[2] = target: T1, DLL4 (human, UniProt Q9NR61 27-685); assay: flow cytometry on cells carrying the target, 2 ug/mL; parent antibody
T1 construct: whole, on cells; also called human DLL4

[3] = target: T1, DLL4; assay: flow cytometry on 293G-human DLL4 cells; reference antibody
[4] = target: T2, NRP1 (UniProt O14786 22-923, limits assumed); assay: flow cytometry on cells carrying the target, 2 ug/mL; parent antibody
T2 construct: whole, on cells; also called neuropilin 1

[5] = target: T3, RON (UniProt Q04912 25-1400, limits assumed); assay: flow cytometry on cells carrying the target, 2 ug/mL; N-terminal VD
T3 construct: whole, on cells; also called macrophage stimulating protein receptor tyrosine kinase; MSP receptor

[6] = target: T4, CD-19 (UniProt P15391 20-291, limits assumed); assay: Direct Bind ELISA, antigen on plate; C-terminal VD
T4 construct: construct unknown
T4 sequence (looked up): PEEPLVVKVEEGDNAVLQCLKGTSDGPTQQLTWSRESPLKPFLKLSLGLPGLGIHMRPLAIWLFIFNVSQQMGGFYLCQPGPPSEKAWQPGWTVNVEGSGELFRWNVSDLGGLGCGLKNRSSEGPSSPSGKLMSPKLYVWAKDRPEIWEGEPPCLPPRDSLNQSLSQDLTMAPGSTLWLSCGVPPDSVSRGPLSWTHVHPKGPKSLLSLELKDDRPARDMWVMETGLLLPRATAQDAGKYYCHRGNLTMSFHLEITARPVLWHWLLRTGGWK

[7] = target: T5, DLL4 ECD/His tag (R&D 1506-D4-050) (UniProt Q9NR61 27-529); assay: direct bind ELISA, DLL4 on plate; reference antibody
T5 construct: extracellular domain; Bought antigen coated on the ELISA plate; not shown: His tag

[8] = target: T4, CD-19; assay: Direct Bind ELISA, antigen on plate; N-terminal VD
[9] = target: T6, IGF1R (UniProt P08069 31-1367, limits assumed); assay: flow cytometry on cells carrying the target, 2 ug/mL; parent antibody
T6 construct: whole, on cells; also called insulin-like growth factor receptor

[10] = target: T3, RON; assay: as above
[11] = target: T7, RON (MSP Receptor ECD-His tag, R&D Systems 1947-MS-050) (UniProt Q04912 25-957, limits assumed); assay: Direct bind ELISA on RON; reference antibody
T7 construct: extracellular domain; not shown: His tag

[12] = target: T8, VEGF (VEGF 1-165 aa, R&D Systems 293-VE-010) (UniProt P15692 27-191); assay: Direct bind ELISA, VEGF coated on plate; reference antibody printed beside DVD509
T8 construct: bought reagent; also called vascular endothelial growth factor

[13] = target: T8, VEGF (VEGF 1-165 aa, R&D Systems …); assay: Direct bind ELISA, VEGF coated on plate; reference antibody printed beside DVD491
[14] = target: T8, VEGF (VEGF 1-165 aa, R&D Systems …); assay: Direct bind ELISA, VEGF coated on plate; reference antibody printed beside DVD498
[15] = target: T8, VEGF (VEGF 1-165 aa, R&D Systems …); assay: Direct bind ELISA, VEGF coated on plate; reference antibody printed beside DVD503
[16] = target: T8, VEGF (VEGF 1-165 aa, R&D Systems …); assay: Direct bind ELISA, VEGF coated on plate; reference antibody printed beside DVD492
[17] = target: T8, VEGF (VEGF 1-165 aa, R&D Systems …); assay: Direct bind ELISA, VEGF coated on plate; reference antibody printed beside DVD497
[18] = target: T8, VEGF (VEGF 1-165 aa, R&D Systems …); assay: Direct bind ELISA, VEGF coated on plate; reference antibody printed beside DVD504
[19] = target: T8, VEGF (VEGF 1-165 aa, R&D Systems …); assay: Direct bind ELISA, VEGF coated on plate; reference antibody printed beside DVD510
[20] = target: T9, VEGF (UniProt P15692 27-191, limits assumed); assay: direct bind ELISA, reference antibody
T9 construct: bought antigen coated on the ELISA plate
T9 sequence (P15692 other isoform, or with tags, fused parts or gaps limits assumed): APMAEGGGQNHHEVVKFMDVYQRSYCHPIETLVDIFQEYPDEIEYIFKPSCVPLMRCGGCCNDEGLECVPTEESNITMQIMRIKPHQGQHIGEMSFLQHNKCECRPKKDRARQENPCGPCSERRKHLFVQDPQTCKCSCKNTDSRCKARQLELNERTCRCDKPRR

T8 sequence (P15692 other isoform, or with tags, fused parts or gaps limits assumed): as above
CD80/FC (B7-1 ECD/FC chimera), sequence (P33681 35-242, change not shown): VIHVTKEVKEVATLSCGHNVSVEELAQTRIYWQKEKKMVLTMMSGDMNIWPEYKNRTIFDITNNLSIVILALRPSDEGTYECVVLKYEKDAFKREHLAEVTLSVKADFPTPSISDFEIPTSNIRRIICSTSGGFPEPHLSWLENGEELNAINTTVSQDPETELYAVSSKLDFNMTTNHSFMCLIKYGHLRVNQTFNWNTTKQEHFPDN

B1: AB007 (anti-CD-80 parent antibody) (antibody, IgG1, V domains shown)
VH: QVQLQESGPGLVKPSETLSLTCAVSGGSISGGYGWGWIRQPPGKGLEWIGSFYSSSGNTYYNPSLKSQVTISTDTSKNQFSLKLNSMTAADTAVYYCVRDRLFSVVGMVYNNWFDVWGPGVLVTVSS
VL: ESALTQPPSVSGAPGQKVTISCTGSTSNIGGYDLHWYQQLPGTAPKLLIYDINKRPSGISDRFSGSKSGTAASLAITGLQTEDEADYYCQSYDSSLNAQVFGGGTRLTVLG
notes: HC vector V1 (wild-type hIgG1 constant), LC vector V3 (lambda constant); also called AB007VH; AB007VL
Q: For B1, which EC50 [1] is on record?
A: 0.77 nM

B2: AB015 (antibody, human IgG1, kappa)
heavy: not shown
light: DIQMTQSPSSLSASVGDRVTITCRASQDVSTAVAWYQQKPGKAPKLLIYSASFLYSGVPSRFSGSGSGTDFTLTISSLQPEDFATTYYCQQSYTGTVTFGQGTKVEIKRTVAAPSVFIFPPSDEQLKSGTASVVCLLNNFYPREAKVQWKVDNALQSGNSQESVTEQDSKDSTYSLSSTLTLSKADYEKHKVYACEVTHQGLSSPVTKSFNRGEC
notes: Parent antibody; also called AB015
Q: How did the “FACS Geometric Mean” value [2] turn out when B2 was run?
A: 308

Q: And the EC50 [3]?
A: 0.5 nM

B3: AB016 (antibody, human IgG1, kappa, V domains shown)
VH: EVQLVESGGGLVQPGGSLRLSCAASGFSFSSEPISWVRQAPGKGLEWVSSITGKNGYTYYADSVKGRFTISADTSKNTAYLQMNSLRAEDTAVYYCARWGKKVYGMDVWGQGTLVTVSS
VL: DIQMTQSPSSLSASVGDRVTITCRASQSISSYLAWYQQKPGKAPKLLIYGASSRASGVPSRFSGSGSGTDFTLTISSLQPEDFATYYCQQYMSVPITFGQGTKVEIKR
notes: Parent antibody
Q: B3 was tested. Which “FACS Geometric Mean” value [4] did it give?
A: 338

B4: DVD033 (bispecific antibody, human IgG1, kappa)
heavy: not shown
light: DVVMTQSPLSLPVTPGEPASISCRSSQSLLHSNGFNYVDWYLQKPGQSPHLLIYFGSYRASGVPDRFSGSGSGTDFTLKISRVEAEDVGVYYCMQALQTPPWTFGQGTKVEIRRTVAAPDIQMTQSPSSVSASVGDRVTITCRASQGISSWLAWYQQKPGKAPNLLIYEASSLQSGVPSRFGGSGSGTDFTLTISSLQPEDFATYYCQQANGFPWTFGQGTKVEIKRTVAAPSVFIFPPSDEQLKSGTASVVCLLNNFYPREAKVQWKVDNALQSGNSQESVTEQDSKDSTYSLSSTLTLSKADYEKHKVYACEVTHQGLSSPVTKSFNRGEC
notes: DVD-Ig; outer AB005 (RON), inner AB012 (HGF); also called RON and HGF DVD-Ig
Q: Which “FACS Geometric Mean N-terminal” value [5] does the source give for B4 here?
A: 6.46

B5: DVD001 (CD-20 and CD-19 DVD-Ig) (bispecific antibody, IgG1)
VH: QVQLQQPGAELVKPGASVKMSCKASGYTFTSYNMHWVKQTPGRGLEWIGAIYPGNGDTSYNQKFKGKATLTADKSSSTAYMQLSSLTSEDSAVYYCARSTYYGGDWYFNVWGAGTTVTVSAASTKGPQVQLQQSGAELVRPGSSVKISCKASGYAFSSYWMNWVKQRPGQGLEWIGQIWPGDGDTNYNGKFKGKATLTADESSSTAYMQLSSLASEDSAVYFCARRETTTVGRYYYAMDYWGQGTSVTVSS
VL: QIVLSQSPAILSPSPGEKVTMTCRASSSVSYIHWFQQKPGSSPKPWIYATSNLASGVPVRFSGSGSGTSYSLTISRVEAEDAATYYCQQWTSNPPTFGGGTKLEIKRTVAAPDILLTQTPASLAVSLGQRATISCKASQSVDYDGDSYLNWYQQIPGQPPKLLIYDASNLVSGIPPRFSGSGSGTDFTLNIHPVEKVDAATYHCQQSTEDPWTFGGGTKLEIKR
notes: Outer AB001, inner AB006; HC vector V1 (wild-type hIgG1 constant), LC vector V2 (kappa constant); also called DVD001H; DVD001L
Q: Which EC50 [6] does the source give for B5 here?
A: 12.9 nM

B6: AB072 (antibody, human IgG1, kappa, V domains shown)
VH: EVQLQQSGPELVKPGASVKMSCKASGYTFTSYVINWVKQKPGQGLEWIGLINPYNDGTKYNEKFKVKATLTSDKSSSTAYMELSSLTSEDSAVYYCASYYYGSRYYFDYWGQGTTLTVSS
VL: DIQMTQSSSYLSVSLGGRVTITCKASDHINNWLAWYQQKPGNAPRLLISGATSLETGVPSRFSGSGSGKDYTLSITSLQTEDVATYYCQQYWSIPLTFGAGTKLELKR
notes: also called AB072-DLL-4
Q: With B6 as the binder, how does the EC50 [7] read?
A: 1.29 nM and 0.7 nM and 1.99 nM and 1.85 nM

B7: DVD002 (CD-19 and CD-20 DVD-Ig) (bispecific antibody, IgG1)
VH: QVQLQQSGAELVRPGSSVKISCKASGYAFSSYWMNWVKQRPGQGLEWIGQIWPGDGDTNYNGKFKGKATLTADESSSTAYMQLSSLASEDSAVYFCARRETTTVGRYYYAMDYWGQGTSVTVSSASTKGPQVQLQQPGAELVKPGASVKMSCKASGYTFTSYNMHWVKQTPGRGLEWIGAIYPGNGDTSYNQKFKGKATLTADKSSSTAYMQLSSLTSEDSAVYYCARSTYYGGDWYFNVWGAGTTVTVSA
VL: DILLTQTPASLAVSLGQRATISCKASQSVDYDGDSYLNWYQQIPGQPPKLLIYDASNLVSGIPPRFSGSGSGTDFTLNIHPVEKVDAATYHCQQSTEDPWTFGGGTKLEIKRTVAAPQIVLSQSPAILSPSPGEKVTMTCRASSSVSYIHWFQQKPGSSPKPWIYATSNLASGVPVRFSGSGSGTSYSLTISRVEAEDAATYYCQQWTSNPPTFGGGTKLEIKR
notes: Outer AB006, inner AB001; HC vector V1 (wild-type hIgG1 constant), LC vector V2 (kappa constant); also called DVD002H; DVD002L
Q: For B7, which EC50 [8] is on record?
A: 0.07 nM

B8: AB011 (antibody, human IgG1, kappa, V domains shown)
VH: EVQLLESGGGLVQPGGSLRLSCTASGFTFSSYAMNWVRQAPGKGLEWVSAISGSGGTTFYADSVKGRFTISRDNSRTTLYLQMNSLRAEDTAVYYCAKDLGWSDSYYYYYGMDVWGQGTTVTVSS
VL: DIQMTQFPSSLSASVGDRVTITCRASQGIRNDLGWYQQKPGKAPKRLIYAASRLHRGVPSRFSGSGSGTEFTLTISSLQPEDFATYYCLQHNSYPCSFGQGTKLEIKR
notes: Parent antibody
Q: How did the “FACS Geometric Mean” value [9] turn out when B8 was run?
A: 1680

B9: AB005 (antibody, human IgG1, kappa, V domains shown)
VH: EVQLVQSGGGLVKPGGSLRLSCAASGFTFSSYAMHWVRQAPGKGLEWVAVISYDGSNKYYADSVKGRFTISRDNSKNTLYLQMNSLRAEDTAVYYCARFSGWPNNYYYYGMDVWGQGTTVTVSS
VL: DVVMTQSPLSLPVTPGEPASISCRSSQSLLHSNGFNYVDWYLQKPGQSPHLLIYFGSYRASGVPDRFSGSGSGTDFTLKISRVEAEDVGVYYCMQALQTPPWTFGQGTKVEIRR
notes: Parent antibody
Q: Which “FACS Geometric Mean” value [10] does the source give for B9 here?
A: 54.5

B10: AB005 (anti-RON (seq. 1) parent antibody) (antibody, human IgG1, V domains shown)
VH: B9 VH
VL: B9 VL
notes: also called AB005VH; AB005VL
Q: How did the EC50 [11] turn out when B10 was run?
A: 0.26 nM and 0.69 nM

B11: AB071 (antibody, human IgG1, kappa, L234A L235A, V domains shown)
VH: EVQLVESGGGLVQPGGSLRLSCAASGFTINASWIHWVRQAPGKGLEWVGAIYPYSGYTNYADSVKGRFTISADTSKNTAYLQMNSLRAEDTAVYYCARWGHSTSPWAMDYWGQGTLVTVSS
VL: DIQMTQSPSSLSASVGDRVTITCRASQVIRRSLAWYQQKPGKAPKLLIYAASNLASGVPSRFSGSGSGTDFTLTISSLQPEDFATYYCQQSNTSPLTFGQGTKVEIKR
notes: Parent anti-VEGF antibody
Q: B11 was tested. Which EC50 [12] did it give?
A: 37.8 nM

Q: And the EC50 [13]?
A: 45.7 nM

Q: What about the EC50 [14] of the same binder?
A: 45.7 nM

Q: What about the EC50 [15] of the same binder?
A: 37.8 nM

Q: And the EC50 [16]?
A: 45.7 nM

Q: And the EC50 [17]?
A: 45.7 nM

Q: What about the EC50 [18] of the same binder?
A: 37.8 nM

Q: What about the EC50 [19] of the same binder?
A: 37.8 nM

B12: AB071 (antibody, human IgG1, kappa, L234A L235A, V domains shown)
VH: B11 VH
VL: B11 VL
Q: For B12, which EC50 [20] is on record?
A: 35.4 nM and 26.6 nM
